Data reported in US20260201045A1.

Target: full length human CNTFR (hCNTFR, amino acids 1-372, UniProtKB/Swiss-Prot Accession #P26992) (human) (UniProt P26992)
Test: cell-based or functional assay

Sequence of full length human CNTFR (P26992 23-342 limits assumed, one chain of several): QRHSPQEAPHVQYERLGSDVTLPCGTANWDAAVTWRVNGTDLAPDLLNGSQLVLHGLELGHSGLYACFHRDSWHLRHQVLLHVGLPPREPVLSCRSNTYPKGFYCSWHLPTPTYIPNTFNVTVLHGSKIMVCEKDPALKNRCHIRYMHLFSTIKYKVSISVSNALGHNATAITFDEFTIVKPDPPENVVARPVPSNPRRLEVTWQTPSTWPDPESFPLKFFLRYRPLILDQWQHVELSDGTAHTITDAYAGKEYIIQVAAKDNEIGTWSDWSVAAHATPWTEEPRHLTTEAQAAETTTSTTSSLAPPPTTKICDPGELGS

Row | Ligand EC50 [M], activation of IMR-32/STAT3-luc cells (luciferase) [M] | Substance
1 | 2.26e-12 | human Ciliary Neurotrophic Factor (hCNTF, R&D Systems, 257-NT) (from UniProt P26441 2-200) (ligand)
2 | 9.63e-11 | human Cytokine-like Factor 1/human Cardiotrophin-like cytokine complex (hCLF-1/CLC, R&D Systems 1151-CL) (from UniProt O75462 38-422; Q9UBD9 28-225) (ligand)
